Drawing on patent publication US20190330296A1, this text covers Human GLP1R EC50 for one substance.

The target in this assay is human GLP-1 receptor (human) (UniProt P43220). Briefly: cell-based or functional assay.
human GLP-1 receptor (human), sequence (P43220 24-463): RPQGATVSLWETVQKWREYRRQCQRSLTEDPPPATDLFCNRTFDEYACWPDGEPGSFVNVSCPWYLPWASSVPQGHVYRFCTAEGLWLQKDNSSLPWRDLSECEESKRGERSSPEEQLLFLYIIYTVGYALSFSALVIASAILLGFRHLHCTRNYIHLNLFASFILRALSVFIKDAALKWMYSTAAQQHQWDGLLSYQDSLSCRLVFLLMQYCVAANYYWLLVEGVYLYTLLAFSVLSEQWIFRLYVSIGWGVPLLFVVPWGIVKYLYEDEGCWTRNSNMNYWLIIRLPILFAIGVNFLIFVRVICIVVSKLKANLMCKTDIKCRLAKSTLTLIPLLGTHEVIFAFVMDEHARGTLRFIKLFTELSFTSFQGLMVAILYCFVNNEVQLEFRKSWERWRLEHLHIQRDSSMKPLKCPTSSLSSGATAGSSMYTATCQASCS

Dulaglutide (Fc fusion) showed a Human GLP1R EC50 of 0.035 nM.
